The target of test [1] is T1, huBTN1A1 (human, UniProt Q13410 27-242, limits assumed).
T1 construct: Sourced antigen; construct not described; also called Human BTN1A1
T1 sequence (looked up): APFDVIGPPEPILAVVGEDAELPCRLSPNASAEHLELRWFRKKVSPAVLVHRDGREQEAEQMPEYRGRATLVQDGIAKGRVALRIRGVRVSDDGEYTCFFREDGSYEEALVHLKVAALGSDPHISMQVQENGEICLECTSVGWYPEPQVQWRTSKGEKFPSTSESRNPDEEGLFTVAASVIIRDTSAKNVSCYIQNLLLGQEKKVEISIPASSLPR
Put plainly: ELISA, absorbance 450 nm, antigen human BTN1A1 GST.

In test [2] the target is T2, huB7-H3 (human, UniProt Q5ZPR3 29-461, limits assumed).
T2 construct: Sourced antigen; construct not described; also called Human B7-H3
T2 sequence (looked up): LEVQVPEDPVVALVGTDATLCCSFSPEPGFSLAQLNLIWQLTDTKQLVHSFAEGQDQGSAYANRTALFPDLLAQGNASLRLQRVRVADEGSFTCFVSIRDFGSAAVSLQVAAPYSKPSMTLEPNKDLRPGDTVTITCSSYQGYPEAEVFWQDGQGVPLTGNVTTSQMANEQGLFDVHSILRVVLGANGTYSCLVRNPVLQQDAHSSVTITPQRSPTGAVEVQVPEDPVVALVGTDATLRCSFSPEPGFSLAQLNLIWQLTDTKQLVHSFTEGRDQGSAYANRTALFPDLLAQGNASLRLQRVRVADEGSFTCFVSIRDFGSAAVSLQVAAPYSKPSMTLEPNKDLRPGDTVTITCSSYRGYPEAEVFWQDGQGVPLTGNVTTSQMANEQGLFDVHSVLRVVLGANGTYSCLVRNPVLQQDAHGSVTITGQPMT
Kind of test: ELISA, absorbance 450 nm, antigen human B7-H3 (ECD) Fc.

The target of test [3] is T3, Murine B7-H4-Fc (Mouse B7H4 ECD, Fc_6His) (mouse, UniProt Q7TSP5 25-257).
T3 construct: extracellular domain; also called mouse B7-H4-Fc; FcHis6 tagged murine B7-H4
T3 sequence (Q7TSP5 whole entry, looked up): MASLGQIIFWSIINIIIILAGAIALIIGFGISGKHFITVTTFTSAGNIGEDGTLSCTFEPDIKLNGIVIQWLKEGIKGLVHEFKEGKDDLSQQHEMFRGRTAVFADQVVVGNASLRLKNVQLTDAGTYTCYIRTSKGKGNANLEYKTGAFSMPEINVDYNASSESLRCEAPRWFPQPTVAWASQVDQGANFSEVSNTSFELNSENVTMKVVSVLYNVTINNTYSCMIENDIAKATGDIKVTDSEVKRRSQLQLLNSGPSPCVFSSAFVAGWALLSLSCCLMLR
Put plainly: HTRF binding, murine IgG1. (In TR-FRET formats the signal depends on donor and acceptor labels being close together.)

For test [4], the target named is T4, Human B7-H4-Fc (Human B7H4 ECD, Fc_6His) (human).
T4 construct: also called FcHis6 tagged human B7-H4
T4 sequence (Q7Z7D3 whole entry, looked up): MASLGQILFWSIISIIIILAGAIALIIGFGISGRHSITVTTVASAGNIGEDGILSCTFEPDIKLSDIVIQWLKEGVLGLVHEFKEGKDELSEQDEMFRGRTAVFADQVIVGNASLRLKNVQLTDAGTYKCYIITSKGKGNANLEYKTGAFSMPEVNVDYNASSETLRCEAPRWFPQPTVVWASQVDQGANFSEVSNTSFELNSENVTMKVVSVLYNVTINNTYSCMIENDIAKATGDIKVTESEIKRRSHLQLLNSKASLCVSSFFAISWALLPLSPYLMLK
Kind of test: HTRF binding, murine IgG1.

The target of test [5] is T5, Cyno B7-H4-Fc (Cyno B7H4 ECD, FcTM_6His) (cynomolgus monkey).
T5 construct: extracellular domain; also called cynomolgus B7-H4-Fc
Kind of test: HTRF binding, murine IgG1.

Test [6] concerns the target T4, Human B7-H4-Fc (Human B7H4 ECD, Fc_6His). Put plainly: ELISA, absorbance 450 nm; x axis of this panel printed as Antibody Conc (µg/ml).
The target of test [7] is T6, Human B7-H4 ECD-Flag-His10 (monomeric) (human, UniProt Q7Z7D3 25-259).
T6 construct: Minimally biotinylated for KinExA; also called hB7H4-ECD-Flag-His10; B7-H4-FLAG
T6 sequence: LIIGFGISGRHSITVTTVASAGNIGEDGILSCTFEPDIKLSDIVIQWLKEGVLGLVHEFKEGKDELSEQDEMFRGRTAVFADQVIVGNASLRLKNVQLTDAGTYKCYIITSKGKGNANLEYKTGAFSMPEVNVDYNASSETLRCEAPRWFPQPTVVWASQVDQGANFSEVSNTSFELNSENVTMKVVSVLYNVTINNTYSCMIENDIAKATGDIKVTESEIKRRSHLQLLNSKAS
The test is described as above.

Test [8] has as its target T7, huBTN3A2 (human, UniProt P78410 30-248, limits assumed).
T7 construct: Sourced antigen; construct not described; also called Human BTN3A2
Kind of test: ELISA, absorbance 450 nm, antigen human BTN3A2 GST. Background: In an ELISA, binding on a coated surface is turned into a signal by an enzyme label.

Test [9] has as its target T8, huHHLA2 (human, UniProt Q9UM44 23-344).
T8 construct: Sourced antigen; construct not described; also called Human HHLA2
T8 sequence (looked up): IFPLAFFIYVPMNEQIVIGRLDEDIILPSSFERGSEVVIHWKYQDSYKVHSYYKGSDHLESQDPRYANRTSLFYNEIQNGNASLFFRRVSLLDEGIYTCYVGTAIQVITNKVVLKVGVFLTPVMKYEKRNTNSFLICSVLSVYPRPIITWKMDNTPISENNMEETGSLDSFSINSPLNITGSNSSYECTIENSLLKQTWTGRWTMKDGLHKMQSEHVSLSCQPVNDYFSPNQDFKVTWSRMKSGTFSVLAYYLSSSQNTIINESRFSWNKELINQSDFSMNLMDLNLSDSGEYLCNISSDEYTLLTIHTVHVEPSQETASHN
Put plainly: ELISA, absorbance 450 nm, antigen human HHLA2 GST.

In test [10] the target is T9, huB7-H2 (human, UniProt O75144 19-258).
T9 construct: Sourced antigen; construct not described; also called Human B7-H2
T9 sequence (looked up): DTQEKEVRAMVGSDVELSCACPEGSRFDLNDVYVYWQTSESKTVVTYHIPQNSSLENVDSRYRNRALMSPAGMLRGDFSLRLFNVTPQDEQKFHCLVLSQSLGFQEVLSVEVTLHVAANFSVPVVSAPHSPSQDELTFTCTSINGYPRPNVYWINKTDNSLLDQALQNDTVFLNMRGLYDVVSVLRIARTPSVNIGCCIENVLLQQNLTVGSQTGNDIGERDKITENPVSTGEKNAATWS
Kind of test: ELISA, absorbance 450 nm, antigen human B7-H2 (ECD) F10H.

Test [11] has as its target T10, huBTN2A1 (human, UniProt Q7KYR7 29-248, limits assumed).
T10 construct: Sourced antigen; construct not described; also called Human BTN2A1
T10 sequence (looked up): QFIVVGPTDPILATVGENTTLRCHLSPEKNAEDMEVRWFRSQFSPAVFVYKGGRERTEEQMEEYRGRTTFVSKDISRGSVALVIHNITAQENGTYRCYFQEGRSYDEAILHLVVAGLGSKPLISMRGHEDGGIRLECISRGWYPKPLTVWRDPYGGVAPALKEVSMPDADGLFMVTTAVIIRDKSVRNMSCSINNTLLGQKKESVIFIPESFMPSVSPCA
Put plainly: ELISA.

The target of test [12] is T11, huBTNL3 (human, UniProt Q6UXE8 18-237, limits assumed).
T11 construct: Sourced antigen; construct not described; also called Human BTNL3
T11 sequence (looked up): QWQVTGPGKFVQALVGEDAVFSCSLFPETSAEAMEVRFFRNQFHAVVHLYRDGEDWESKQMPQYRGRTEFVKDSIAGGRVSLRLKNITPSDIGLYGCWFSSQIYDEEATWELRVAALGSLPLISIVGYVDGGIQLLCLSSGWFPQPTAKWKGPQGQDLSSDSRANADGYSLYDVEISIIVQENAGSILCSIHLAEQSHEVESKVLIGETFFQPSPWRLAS
Put plainly: ELISA.

Test [13] has as its target T12, huB7-H1 (human, UniProt Q9NZQ7 19-238).
T12 construct: Sourced antigen; construct not described; also called Human B7-H1
Kind of test: ELISA, absorbance 450 nm, antigen human B7-H1(ECD) F10H.

The target in test [14] is T4, Human B7-H4-Fc (Human B7H4 ECD, Fc_6His). Kind of test: ELISA, absorbance 450 nm; x axis printed as antigen concentration (µg/ml).
For test [15], the target named is T6, Human B7-H4 ECD-Flag-His10 (monomeric). The description is as above.
The target in test [16] is T5, Cyno B7-H4-Fc (Cyno B7H4 ECD, FcTM_6His). Kind of test: ELISA, absorbance 450 nm, Cyno B7H4 (ECD) Fc TM 6H; x axis printed as antigen concentration (nM).
Test [17] has as its target T13, Human B7H4 (ECD) Fc TM 6H (human, UniProt Q7Z7D3).
T13 construct: ECD, native leader
T13 sequence (Q7Z7D3 whole entry, looked up): T4 sequence (Q7Z7D3 whole entry, looked up)
Put plainly: ELISA, absorbance 450 nm, Human B7H4 (ECD) Fc TM 6H; x axis printed as antigen concentration (nM).

The record followed here is patent US20240239894A1 (AstraZeneca / MedImmune, published 2024).

Where a chain is given by its changes, count along the chain named.

T7 sequence (P78410 30-248 limits assumed): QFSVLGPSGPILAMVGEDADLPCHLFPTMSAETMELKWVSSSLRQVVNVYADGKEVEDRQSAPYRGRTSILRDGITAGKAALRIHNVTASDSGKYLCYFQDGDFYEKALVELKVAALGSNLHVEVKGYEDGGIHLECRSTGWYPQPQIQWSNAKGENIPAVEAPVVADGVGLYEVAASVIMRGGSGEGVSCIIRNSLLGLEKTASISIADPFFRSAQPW
T12 sequence (Q9NZQ7 19-238 limits assumed): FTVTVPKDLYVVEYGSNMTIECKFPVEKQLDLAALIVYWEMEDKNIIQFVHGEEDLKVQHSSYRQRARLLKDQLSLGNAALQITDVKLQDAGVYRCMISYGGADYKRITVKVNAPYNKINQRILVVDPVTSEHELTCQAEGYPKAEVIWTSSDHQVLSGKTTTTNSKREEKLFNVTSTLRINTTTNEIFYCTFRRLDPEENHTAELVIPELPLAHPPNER

B1: ZY0EPQ-E02 murine IgG1 (antibody, V domains shown)
VH: QVQLQQWGAGLLKPSETLSLTCAVYGGSFSGYYWNWIRQPPGKGLEWIGEINHSGSTNYNPSLKSRVTILVDTSKNQFSLKLSSVTAADTAVYYCARNLYNWNLDSWGQGTLVTVSS
VL: DIQMTQSPSSLSASVGDRVTITCRASQGIRNDLGWYQQKPGRAPKRLIYVASSLQSGVPSRFSGSGSGTEFTLTISSLQPEDFATYYCLQHNSYPRTFGQGTKVEIK
As usually defined, the EC50 is the midpoint of the concentration-response curve. The low end stands for a more potent agent, the high end for a less potent agent. Usually EC50 (read off the curve) stands for the concentration giving half of the maximal effect. The low end stands for greater potency, the high end for weaker potency. With B1, the binding result in [1] is given as “no binding (tested: 10 µg/ml (antigen))”; in [2], “no binding”; in [8] it was “no binding (tested: about 10 µg/ml (antigen))”; in test [9], “no binding (tested: about 10 µg/ml (antigen))”; in [10] it was “no binding (tested: 10 µg/ml (antigen))”; in test [11], “no binding”. In addition, the binding result was “no binding” in [12] and “no binding (tested: 10 µg/ml (antigen))” in test [13]. Further, the figures for the EC50 in test [3], in test [4] and in test [5] were 2.03 nM, 0.38 nM and 0.38 nM, respectively. The values for the Max in test [3], in test [4] and in [5] were 790, 2740 and 2240, respectively. Moreover, the “EC50 (read off the curve)” value in test [6] and in [7] was about 0.2 µg/mL throughout.

B2: ZY0EQD-E02 murine IgG1 (antibody, V domains shown)
VH: B1 VH with N58S, L70S, N98V, L104V
VL: B1 VL with G28D, L33V, R42K, V50A, S53R
Take B2: the binding result in [1] is listed as “no binding (tested: 10 µg/ml (antigen))”; in test [2], “no binding”; in test [8] it was “no binding (tested: about 10 µg/ml (antigen))”; in test [9], “no binding (tested: about 10 µg/ml (antigen))”; in [10], “no binding (tested: 10 µg/ml (antigen))”; in test [11], “no binding”. Further, the binding result in [12] was “no binding”; in [13] it was “no binding (tested: 10 µg/ml (antigen))”. Besides, the values for the EC50 in [3], in test [4] and in test [5] were 3.64 nM, 0.22 nM and 0.22 nM, respectively. In addition, the Max in test [3] stood at 447; in test [4], 3170; in test [5] it was 2490. Further, the results for the “EC50 (read off the curve)” value in [14] and in [15] were about 0.03 µg/mL and about 0.04 µg/mL, respectively.

B3: E02-GL-maia (antibody, human IgG1, kappa)
heavy: QVQLQQWGAGLLKPSETLSLACTVYGGSFSGYYWNWIRQPPGKGLEWIGEINHSGSTSYNPSLKSRVTISVDTSKNQFSLKLSSVTAADTAVYYCARVLYNWNVDSWGQGTLVTVSSASTKGPSVFPLAPSSKSTSGGTAALGCLVKDYFPEPVTVSWNSGALTSGVHTFPAVLQSSGLYSLSSVVTVPSSSLGTQTYICNVNHKPSNTKVDKRVEPKSCDKTHTCPPCPAPELLGGPSCVFLFPPKPKDTLMISRTPEVTCVVVDVSHEDPEVKFNWYVDGVEVHNAKTKPREEQYNSTYRVVSVLTVLHQDWLNGKEYKCKVSNKALPAPIEKTISKAKGQPREPQVYTLPPSREEMTKNQVSLTCLVKGFYPSDIAVEWESNGQPENNYKTTPPVLDSDGSFFLYSKLTVDKSRWQQGNVFSCSVMHEALHNHYTQKSLSLSPGK
light: DIQMTQSPSSLSASVGDRVTITCRASQDIRNDVGWYQQKPGKAPKRLIYAASRLQSGVPSRFSGSGSGTEFTLTISSLQPEDFATYYCLQHNSYPRTFGQGTKVEIKRTVAAPSVFIFPPSDEQLKSGTASVVCLLNNFYPREAKVQWKVDNALQSGNSQESVTEQDSKDSTYSLSSTLTLSKADYEKHKVYACEVTHQGLSSPVTKSFNRGEC
notes: Maia format: cysteine insertion in the IgG1 constant region; also called germlined (GL) Maia format mAb
As to B3, the “EC50 (read off the curve)” value in test [16] and in test [17] was about 10 nM each time.
